{
  "source": "paper PMC5045167",
  "about": "“STN1 OB Fold Mutation Alters DNA Binding and Affects Selective Aspects of CST Function”",
  "key": {"CST(WT) (CTC1-STN1-TEN1) [1]": {"target": "T1, CST(WT) (CTC1-STN1-TEN1) (human, UniProt Q2NKJ3;Q9H668;Q86WV5 1-1217;1-368;1-123)", "T1 sequence (Q2NKJ3 whole entry, chain 1 of 3)": "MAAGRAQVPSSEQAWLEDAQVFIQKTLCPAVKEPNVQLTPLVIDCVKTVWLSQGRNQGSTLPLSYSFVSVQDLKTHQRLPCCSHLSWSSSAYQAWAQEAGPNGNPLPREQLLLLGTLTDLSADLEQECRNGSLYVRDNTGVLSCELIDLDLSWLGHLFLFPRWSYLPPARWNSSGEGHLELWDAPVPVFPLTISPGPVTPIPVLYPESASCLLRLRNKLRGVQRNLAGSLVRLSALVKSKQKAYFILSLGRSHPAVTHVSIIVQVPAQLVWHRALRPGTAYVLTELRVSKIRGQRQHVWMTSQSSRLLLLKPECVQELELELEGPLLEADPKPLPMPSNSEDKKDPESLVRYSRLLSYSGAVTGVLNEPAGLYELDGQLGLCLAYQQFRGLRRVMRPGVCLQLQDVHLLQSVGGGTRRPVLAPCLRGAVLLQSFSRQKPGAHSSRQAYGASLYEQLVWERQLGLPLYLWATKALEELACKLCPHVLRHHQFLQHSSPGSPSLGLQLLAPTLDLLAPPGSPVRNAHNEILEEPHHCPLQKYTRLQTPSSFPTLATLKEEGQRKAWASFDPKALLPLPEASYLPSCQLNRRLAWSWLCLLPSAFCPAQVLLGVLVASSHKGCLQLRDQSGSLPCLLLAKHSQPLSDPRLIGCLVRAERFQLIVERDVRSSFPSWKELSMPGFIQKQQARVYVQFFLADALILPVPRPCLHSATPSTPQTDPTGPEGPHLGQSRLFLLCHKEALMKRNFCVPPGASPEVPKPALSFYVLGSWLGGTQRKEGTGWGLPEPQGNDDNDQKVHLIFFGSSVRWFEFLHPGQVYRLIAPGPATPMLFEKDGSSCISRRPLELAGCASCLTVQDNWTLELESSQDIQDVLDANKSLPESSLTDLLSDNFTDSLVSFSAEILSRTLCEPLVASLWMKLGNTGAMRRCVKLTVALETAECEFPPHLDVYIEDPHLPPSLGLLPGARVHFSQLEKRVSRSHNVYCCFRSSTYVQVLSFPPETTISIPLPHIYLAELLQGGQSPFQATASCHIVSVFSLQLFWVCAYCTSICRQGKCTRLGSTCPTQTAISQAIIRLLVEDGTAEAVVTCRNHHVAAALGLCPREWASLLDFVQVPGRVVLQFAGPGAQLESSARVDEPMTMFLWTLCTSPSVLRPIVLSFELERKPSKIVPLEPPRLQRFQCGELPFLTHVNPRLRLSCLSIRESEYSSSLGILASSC", "T1 sequence (Q9H668 whole entry, chain 2 of 3)": "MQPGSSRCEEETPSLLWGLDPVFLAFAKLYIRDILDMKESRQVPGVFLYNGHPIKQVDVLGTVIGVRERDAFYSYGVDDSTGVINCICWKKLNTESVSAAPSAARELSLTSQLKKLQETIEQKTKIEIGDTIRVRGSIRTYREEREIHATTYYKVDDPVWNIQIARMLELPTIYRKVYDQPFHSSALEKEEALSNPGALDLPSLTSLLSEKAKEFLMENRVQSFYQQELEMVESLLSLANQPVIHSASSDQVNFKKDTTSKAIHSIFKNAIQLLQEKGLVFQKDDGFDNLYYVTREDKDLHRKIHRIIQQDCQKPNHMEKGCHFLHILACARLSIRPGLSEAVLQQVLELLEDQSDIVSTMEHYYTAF", "T1 sequence (Q86WV5 whole entry, chain 3 of 3)": "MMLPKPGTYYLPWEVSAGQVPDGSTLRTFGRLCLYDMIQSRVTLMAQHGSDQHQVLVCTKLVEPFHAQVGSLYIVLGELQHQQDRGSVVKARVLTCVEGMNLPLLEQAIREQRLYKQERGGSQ", "experiment": "EMSA; up to 20 nM CST; 25 mM Tris pH 8.0, 1 mM DTT, 150 mM NaCl; EMSA 0.1 nM DNA, 30 min RT; filter binding 0.01 nM DNA, 18 h 4 C; crosslinking 20 nM CST, 2 nM DNA, UVA on ice", "details": "protein: recombinant; tags: N-terminal FLAG-CTC1, His-STN1; TEN1 untagged (Methods says all tags N-terminal); copies: 1;1;1; label: 32P"}, "CST(STN1-OBM) [2]": {"target": "T2, CST(STN1-OBM) (human, UniProt Q2NKJ3;Q9H668;Q86WV5 1-1217;1-368;1-123, W89A;R139L;Y141A)", "T2 sequence (Q2NKJ3 whole entry, chain 1 of 3)": "as the sequence (Q2NKJ3 whole entry, chain 1 of 3) above", "T2 sequence (Q9H668 whole entry W89A/R139L/Y141A, chain 2 of 3)": "as the sequence (Q9H668 whole entry, chain 2 of 3) above, with W89A, R139L, Y141A counted along it", "T2 sequence (Q86WV5 whole entry, chain 3 of 3)": "as the sequence (Q86WV5 whole entry, chain 3 of 3) above", "experiment": "EMSA; up to 20 nM CST; 25 mM Tris pH 8.0, 1 mM DTT, 150 mM NaCl; EMSA 0.1 nM DNA, 30 min RT; filter binding 0.01 nM DNA, 18 h 4 C; crosslinking 20 nM CST, 2 nM DNA, UVA on ice", "details": "protein: recombinant; tags: N-terminal FLAG-CTC1, His-STN1-OBM; TEN1 untagged; copies: 1;1;1; label: 32P"}, "CST(WT) (CTC1-STN1-TEN1) [3]": {"target": "T1, CST(WT) (CTC1-STN1-TEN1)", "experiment": "UV crosslinking; CTC1 and (less efficiently) STN1 crosslinked; 25 mM Tris pH 8.0, 1 mM DTT, 150 mM NaCl; EMSA 0.1 nM DNA, 30 min RT; filter binding 0.01 nM DNA, 18 h 4 C; crosslinking 20 nM CST, 2 nM DNA, UVA on ice", "details": "protein: recombinant; tags: N-terminal FLAG-CTC1, His-STN1; TEN1 untagged (Methods says all tags N-terminal); copies: 1;1;1; label: 32P"}, "CST(STN1-OBM) [4]": {"target": "T2, CST(STN1-OBM)", "experiment": "EMSA; similar affinity to CST(WT); 25 mM Tris pH 8.0, 1 mM DTT, 150 mM NaCl; EMSA 0.1 nM DNA, 30 min RT; filter binding 0.01 nM DNA, 18 h 4 C; crosslinking 20 nM CST, 2 nM DNA, UVA on ice", "details": "protein: recombinant; tags: N-terminal FLAG-CTC1, His-STN1-OBM; TEN1 untagged; copies: 1;1;1; label: 32P"}, "CST(WT) (CTC1-STN1-TEN1) [5]": {"target": "T1, CST(WT) (CTC1-STN1-TEN1)", "experiment": "EMSA; 25 mM Tris pH 8.0, 1 mM DTT, 150 mM NaCl; EMSA 0.1 nM DNA, 30 min RT; filter binding 0.01 nM DNA, 18 h 4 C; crosslinking 20 nM CST, 2 nM DNA, UVA on ice", "details": "protein: recombinant; tags: N-terminal FLAG-CTC1, His-STN1; TEN1 untagged (Methods says all tags N-terminal); copies: 1;1;1; label: 32P"}, "CST(WT) (CTC1-STN1-TEN1) [6]": {"target": "T1, CST(WT) (CTC1-STN1-TEN1)", "experiment": "UV crosslinking; only CTC1 reproducibly crosslinked; 25 mM Tris pH 8.0, 1 mM DTT, 150 mM NaCl; EMSA 0.1 nM DNA, 30 min RT; filter binding 0.01 nM DNA, 18 h 4 C; crosslinking 20 nM CST, 2 nM DNA, UVA on ice", "details": "protein: recombinant; tags: N-terminal FLAG-CTC1, His-STN1; TEN1 untagged (Methods says all tags N-terminal); copies: 1;1;1; label: 32P"}, "CST(WT) (CTC1-STN1-TEN1) [7]": {"target": "T1, CST(WT) (CTC1-STN1-TEN1)", "experiment": "UV crosslinking; CTC1, STN1 and TEN1 crosslinked; 25 mM Tris pH 8.0, 1 mM DTT, 150 mM NaCl; EMSA 0.1 nM DNA, 30 min RT; filter binding 0.01 nM DNA, 18 h 4 C; crosslinking 20 nM CST, 2 nM DNA, UVA on ice", "details": "protein: recombinant; tags: N-terminal FLAG-CTC1, His-STN1; TEN1 untagged (Methods says all tags N-terminal); copies: 1;1;1; label: 32P"}, "CST(WT) (CTC1-STN1-TEN1) [8]": {"target": "T1, CST(WT) (CTC1-STN1-TEN1)", "experiment": "UV crosslinking; CTC1 and STN1 crosslinked; 25 mM Tris pH 8.0, 1 mM DTT, 150 mM NaCl; EMSA 0.1 nM DNA, 30 min RT; filter binding 0.01 nM DNA, 18 h 4 C; crosslinking 20 nM CST, 2 nM DNA, UVA on ice", "details": "protein: recombinant; tags: N-terminal FLAG-CTC1, His-STN1; TEN1 untagged (Methods says all tags N-terminal); copies: 1;1;1; label: 32P"}, "CST(WT) (CTC1-STN1-TEN1) [9]": {"target": "T1, CST(WT) (CTC1-STN1-TEN1)", "experiment": "filter binding; Kd,app measured, value only in Fig 6C; 25 mM Tris pH 8.0, 1 mM DTT, 150 mM NaCl; EMSA 0.1 nM DNA, 30 min RT; filter binding 0.01 nM DNA, 18 h 4 C; crosslinking 20 nM CST, 2 nM DNA, UVA on ice", "details": "protein: recombinant; tags: N-terminal FLAG-CTC1, His-STN1; TEN1 untagged (Methods says all tags N-terminal); copies: 1;1;1; label: 32P"}},
  "data": [
    {"binder": "AGCGTATCCGTTCAGTTG (ssDNA)", "note": "[NonTel-18]", "values": [
      {"measurement": "binding result", "setting": "CST(WT) (CTC1-STN1-TEN1) [1]", "value": "no binding"},
      {"measurement": "binding result", "setting": "CST(STN1-OBM) [2]", "value": "no binding"}
    ]},
    {"binder": "GGTTAGGGTTAGGGTTAG (ssDNA, 4-thiothymidine at position 3 (third nt from 5' end))", "note": "[5'-s4T TelG-18]", "values": [
      {"measurement": "binding result", "setting": "CST(WT) (CTC1-STN1-TEN1) [3]", "value": "binds"}
    ]},
    {"binder": "GGTTAGGGTTAGGGTTAGGGTTAGGGTTAGGGTTAGGGTTAGGGTTAG (ssDNA)", "note": "[TelG-48]", "values": [
      {"measurement": "binding result", "setting": "CST(STN1-OBM) [4]", "value": "binds"},
      {"measurement": "binding result", "setting": "CST(WT) (CTC1-STN1-TEN1) [5]", "value": "binds"}
    ]},
    {"binder": "GGTTAGGGTTAGGGTTAGGGTTAGGGTTAGGGTTAGGGTTAGGGTTAG (ssDNA, 4-thiothymidine at position 3 (third nt from 5' end))", "note": "[5'-s4T TelG-48]", "values": [
      {"measurement": "binding result", "setting": "CST(WT) (CTC1-STN1-TEN1) [6]", "value": "binds"}
    ]},
    {"binder": "GGTTAGGGTTAGGGTTAGGGTTAGGGTTAGGGTTAGGGTTAGGGTTAG (ssDNA, 4-thiothymidine at position 46 (third nt from 3' end))", "note": "[3'-s4T TelG-48]", "values": [
      {"measurement": "binding result", "setting": "CST(WT) (CTC1-STN1-TEN1) [7]", "value": "binds"}
    ]},
    {"binder": "GGTTAGGGTTAGGGTTAG (ssDNA, 4-thiothymidine at position 16 (third nt from 3' end))", "note": "[3'-s4T TelG-18]", "values": [
      {"measurement": "binding result", "setting": "CST(WT) (CTC1-STN1-TEN1) [8]", "value": "binds"}
    ]},
    {"binder": "AGCGTATCCGTTCAGTTGAGCGTATCCGTTCAGTTG (ssDNA)", "note": "[NonTel-36]", "values": [
      {"measurement": "binding result", "setting": "CST(WT) (CTC1-STN1-TEN1) [5]", "value": "binds"}
    ]},
    {"binder": "AGCGTATCCGTTCAGTTGAGCGTATCCGTTCAGTTGAGCGTATCCGTT (ssDNA)", "note": "[NonTel-48]", "values": [
      {"measurement": "binding result", "setting": "CST(STN1-OBM) [4]", "value": "binds"},
      {"measurement": "binding result", "setting": "CST(WT) (CTC1-STN1-TEN1) [5]", "value": "binds"}
    ]},
    {"binder": "GGTTAGGGTTAGGGTTAG (ssDNA)", "note": "[TelG-18]", "values": [
      {"measurement": "binding result", "setting": "CST(WT) (CTC1-STN1-TEN1) [9]", "value": "binds"}
    ]}
  ]
}
